{"source": "patent US20250108119A1", "about": "“NOVEL STEROID PAYLOADS, STEROID LINKERS, ADCs CONTAINING AND USE THEREOF” (IMMUNEXT, INC., priority 2021, published 2025)", "system": "human PBMC", "test": "Identification and quantification of released payload in human PBMC (MS)", "format": "in vitro ADME", "settings": "4h, second study", "description": "In all the following experiments, human PBMC, isolated from 1 healthy donor per study, were treated with exemplary anti-VISTA glucocorticoid conjugates according to the invention to allow identification and quantification of the released payload.\nIn the present experiments, after incubating PBMC with glucocorticoid (GC) antibody drug conjugates (ADC) for 4h, cells were harvested and assessed for both FKBP5 transcription induction via quantitative real time PCR (qPCR) as well as assessed via mass spectrometry (MS) for released payload identification and quantification.\nIsolated PBMCs were resuspended in RPMI 1640 containing 10% human AB serum, 10 mM Hepes, 1× Penicillin/Streptomycin/L-Glutamine (assay media).\nPBMCs from 1 donor were washed 2× in PBS, and then resuspended at 1×10^7/mL in media. […]\nRemaining cells for each treatment were dived into aliquots representing 50 million cells per aliquot (for metabolite quantification only one aliquot per condition was generated). […]\nMedia was removed from each cell pellet with the media then set aside at −80C until it could be assessed for the concentration of effluxed payload. […]\nBriefly, pre-chilled 70% ACN (extraction buffer) was added to the PBMC pellets for extraction. […] was injected onto the LCMS (Luna C18 (2) column, Thermo Scientific Q Exactive Hybrid Quadrupole Orbitrap) and resulting masses assessed. […]", "data": [{"compound": "C[C@]12C=CC(=O)C=C1CC[C@@H]1[C@@H]2[C@@H](O)C[C@@]2(C)[C@H]1C[C@H]1O[C@@H](c3ccc(CC4CC5(C4)CC(NC(=O)[C@H](CCC(=O)O)NC(=O)CNC(=O)CBr)C5)cc3)O[C@]12C(=O)CO", "note": "(stereo partly drawn) [INX V, (S)-4-(2-(2-bromoacetamido)acetamido)-5-((6-(4-((6aR,6bS,7S,8aS,8bS,10R,11aR,12aS,12bS)-7-hydroxy-8b-(2-hydroxyacetyl)-6a,8a-dimethyl-4-oxo-2,4,6a,6b,7,8,8a,8b,11a,12,12a,12b-dodecahydro-1H-naphtho[2′,1′:4,5]indeno[1,2-d][1,3]dioxol-10-yl)benzyl)spiro[3.3]heptan-2-yl)amino)-5-oxopentanoic acid]", "values": [{"measurement": "released payload relative to INX P / INX231P (ng/ng)", "value": 235, "unit": "x"}]}]}
